These results are taken from US20240392020A1 (JIANGSU HENGRUI PHARMACEUTICALS, published 2024).

The labels stand for the following.
B1: R13 (antibody)
heavy: not shown
light: DIQMTQSPSSLSASVGDRVTITCLASEGISSYLAWYQQKPGKAPKLLIYGANSLQTGVPSRFSGSGSATDYTLTISSLQPEDFATYYCQQSYKFPNTFGQGTKVEVKSGAPRFLTRPKAFVVSVGKDATLSSQIVGNPTPQVSWEKDQQPVAAGARFRLAQDGDLYRLTILDLALGDSGQYVSRARNAIGEAFACVGLQVDAEA
B2: R14 (antibody)
heavy: not shown
light: DIQMTQSPSSLSASVGDRVTITCLASEGISSYLAWYQQKPGKAPKLLIYGANSLQTGVPSRFSGSGSATDYTLTISSLQPEDFATYYCQQSYKFPNTFGQGTKVEVKSGAPRFKTRPKAFVVSVGKDATLSSQIVGNPTPQVSWEKDQQPVAAGARFRLAQDGDLYRLKILDLALGDSGQYVSRARNAIGEAFACVGLQVDAEA
B3: R16 (antibody)
heavy: not shown
light: DIQMTQSPSSLSASVGDRVTITCLASEGISSYLAWYQQKPGKAPKLLIYGANSLQTGVPSRFSGSGSATDYTLTISSLQPEDFATYYCQQSYKFPNTFGQGTKVEVKSGAPRFLTRPLAFVVSVGKDATLSSQIVGNPTPQVSWEKDQQPVAAGARFRLAQDGDLYRLKILDLALGDSGQYVSRARNAIGEAFACVGLQVDAEA
B4: R15 (antibody)
heavy: not shown
light: DIQMTQSPSSLSASVGDRVTITCLASEGISSYLAWYQQKPGKAPKLLIYGANSLQTGVPSRFSGSGSATDYTLTISSLQPEDFATYYCQQSYKFPNTFGQGTKVEVKSGAPRFKTRPKAFVVSVGKDATLSSQIVGNPTPQVSWEKDQQPVAAGARFRLAQDGDLYRLHILDLALGDSGQYVSRARNAIGEAFACVGLQVDAEA
B5: R17 (antibody)
heavy: not shown
light: DIQMTQSPSSLSASVGDRVTITCLASEGISSYLAWYQQKPGKAPKLLIYGANSLQTGVPSRFSGSGSATDYTLTISSLQPEDFATYYCQQSYKFPNTFGQGTKVEVKSGAPRFLTRPLAFVVSVGKDATLSSQIVGNPTPQVSWEKDQQPVAAGARFRLAQDGDLYRLHILDLALGDSGQYVSRARNAIGEAFACVGLQVDAEA
B6: R19 (antibody)
heavy: not shown
light: DIQMTQSPSSLSASVGDRVTITCLASEGISSYLAWYQQKPGKAPKLLIYGANSLQTGVPSRFSGSGSATDYTLTISSLQPEDFATYYCQQSYKFPNTFGQGTKVEVKDQPQFSGAPRFKTRPKAFVVSVGKDATLSSQIVGNPTPQVSWEKDQQPVAAGARFRLAQDGDLYRLKILDLALGDSGQYVSRARNAIGEAFACVGLQVDAEA
B7: R18 (antibody)
heavy: not shown
light: DIQMTQSPSSLSASVGDRVTITCLASEGISSYLAWYQQKPGKAPKLLIYGANSLQTGVPSRFSGSGSATDYTLTISSLQPEDFATYYCQQSYKFPNTFGQGTKVEVKDQPQFSGAPRFLTRPKAFVVSVGKDATLSSQIVGNPTPQVSWEKDQQPVAAGARFRLAQDGDLYRLTILDLALGDSGQYVSRARNAIGEAFACVGLQVDAEA
B8: H3 (antibody)
heavy: not shown
light: DIQMTQSPSSVSASVGDRVTITCRASQDIANYLSWYQQKPGKSPKLLIYGTSNLEVGVPSRFSGSRSGTDFTLTISSLQPEDFATYYCLQDKEFPRTFGGGTKVEIKSGAPRFLTRPKAFVVSVGKDATLSCQIVGNPTPQVSWEKDQQPVAAGARFRLAQDGDLYRLTILDLALGDSGQYVCRARNAIGEAFAAVGLQVDAEA
B9: H4 (antibody)
heavy: not shown
light: DIQMTQSPSSVSASVGDRVTITCRASQDIANYLSWYQQKPGKSPKLLIYGTSNLEVGVPSRFSGSRSGTDFTLTISSLQPEDFATYYCLQDKEFPRTFGGGTKVEIKQGSPPCFLRFPRPVRVVSGAEAELKCVVLGEPPPVVVWEKGGQQLAASERLSFPADGAEHGLLLTAALPTDAGVYVCRARNAAGEAYAAAAVTVLEPP
B10: R1 (antibody)
heavy: not shown
light: DIQMTQSPSSLSASVGDRVTITCLASEGISSYLAWYQQKPGKAPKLLIYGANSLQTGVPSRFSGSGSATDYTLTISSLQPEDFATYYCQQSYKFPNTFGQGTKVEVKGILQPDPPANITVTAVARNPRWLSVTWQDPHSWNSSFYRLRFELRYRAERSKTFTTWMVKDLQHHCVIHDAWSGLRHVVQLRAQEEFGQGEWSEWSPEAMGTPW
B11: R3 (antibody)
heavy: not shown
light: DIQMTQSPSSLSASVGDRVTITCLASEGISSYLAWYQQKPGKAPKLLIYGANSLQTGVPSRFSGSGSATDYTLTISSLQPEDFATYYCQQSYKFPNTFGQGTKVEVKGIPPKIEALPSDISIDEGKVLTVACAFTGEPTPEVTWSCGGRKIHSQEQGRFHIENTDDLTTLIIMDVQKQDGGLYTLSLGNEFGSDSATVNIHIRSI
B12: R4 (antibody)
heavy: not shown
light: DIQMTQSPSSLSASVGDRVTITCLASEGISSYLAWYQQKPGKAPKLLIYGANSLQTGVPSRFSGSGSATDYTLTISSLQPEDFATYYCQQSYKFPNTFGQGTKVEVKGIPPKIEALPSDISIDEGKVLTVACAFTGEPTPEVTWSCGGRKIHSQEQGRFHIENTDDLTTLIIMDVQKQDGGLYTLSLGNEFGSDSATVNIHIRSI
B13: R2 (antibody)
heavy: not shown
light: DIQMTQSPSSLSASVGDRVTITCLASEGISSYLAWYQQKPGKAPKLLIYGANSLQTGVPSRFSGSGSATDYTLTISSLQPEDFATYYCQQSYKFPNTFGQGTKVEVKFDPVYKVKPNPPHNLSVINSEELSSILKLTWTNPSIKSVIILKYNIQYRTKDASTWSQIPPEDTASTRSSFTVQDLKPFTEYVFRIRCMKEDGKGYWSDWSEEASGIT
B14: R5 (antibody)
heavy: not shown
light: DIQMTQSPSSLSASVGDRVTITCLASEGISSYLAWYQQKPGKAPKLLIYGANSLQTGVPSRFSGSGSATDYTLTISSLQPEDFATYYCQQSYKFPNTFGQGTKVEVKSGAPRFLTRPKAFVVSVGKDATLSCQIVGNPTPQVSWEKDQQPVAAGARFRLAQDGDLYRLTILDLALGDSGQYVCRARNAIGEAFAAVGLQVDAEA
B15: R6 (antibody)
heavy: not shown
light: DIQMTQSPSSLSASVGDRVTITCLASEGISSYLAWYQQKPGKAPKLLIYGANSLQTGVPSRFSGSGSATDYTLTISSLQPEDFATYYCQQSYKFPNTFGQGTKVEVKQGSPPCFLRFPRPVRVVSGAEAELKCVVLGEPPPVVVWEKGGQQLAASERLSFPADGAEHGLLLTAALPTDAGVYVCRARNAAGEAYAAAAVTVLEPP
B16: R0 (antibody, human IgG1, kappa)
heavy: not shown
light: DIQMTQSPSSLSASVGDRVTITCLASEGISSYLAWYQQKPGKAPKLLIYGANSLQTGVPSRFSGSGSATDYTLTISSLQPEDFATYYCQQSYKFPNTFGQGTKVEVKRTVAAPSVFIFPPSDEQLKSGTASVVCLLNNFYPREAKVQWKVDNALQSGNSQESVTEQDSKDSTYSLSSTLTLSKADYEKHKVYACEVTHQGLSSPVTKSFNRGEC

For the first test, the target named is T1, hIL-5 (human, UniProt P05113 20-134).
T1 construct: bought
Put plainly: ELISA. (An ELISA detects its analyte on a solid surface through an enzyme-linked reagent.)
Method: (§1) For an antibody targeting a soluble protein, the binding activity of the antibody against the soluble protein was detected by ELISA. […] After the blocking was completed, the blocking solution was discarded; and the plate was washed 3 times with a PBST buffer (pH 7.4, PBS containing 0.1% tween-20). 100 μL of the antibody solution diluted in a gradient was added to each well, and the mixture was incubated at 37° C. for 1 h. After the incubation was completed, the plate was washed 3 times with PBST. […] The plate was washed 3 times with PBST. […] The reaction was stopped by adding 50 μL of 1 M H₂SO₄ to each well. The absorbance values at 450 nm were read on a microplate reader, the binding curves of the antibodies to an antigen were fitted with software, and the EC₅₀ values were calculated.
Usually EC50 stands for the concentration at which the effect is half-maximal. B1 returned an EC50 of 0.4 nM.

Molecule B2 had an EC50 of 0.2 nM.

With B3, the EC50 amounted to 0.33 nM.

In turn, B4 returned an EC50 of 0.3 nM.

B5: the EC50 turned out to be 0.4 nM.

Molecule B6 had an EC50 of 0.36 nM.

As to B7, a half-maximal effect (EC50) was put at 0.44 nM.

The next test deals with T1, hIL-5. Put plainly: ELISA. This is another data set of the same source.
Method: as §1
As to B8, the response was half-maximal at 2.75 nM (EC50).

As for B9, the EC50 turned out to be 2.7 nM.

Consider B10, for which a half-maximal response (EC50) required 24.4 nM.

Regarding B11, the half-maximal effective concentration (EC50) was 1.58 nM.

For B12, the concentration giving a half-maximal response (EC50) stood at 1.67 nM.

The molecule B13 registered an EC50 of 18.4 nM.

In turn, B14 came in with an EC50 of 1.59 nM.

B15 came in with an EC50 of 2.02 nM.

Molecule B16 had an EC50 of 1.75 nM.

The target in the next test is T1, hIL-5. Briefly: ELISA. The source holds these as a separate data set.
Method: as §1
The molecule B8 yielded a half-maximal effective concentration (EC50) of 3.24 nM.

On to B9, for which a half-maximal response (EC50) required 3.28 nM.

For the molecule B14, the midpoint of the response, the EC50, lay at 4.13 nM.
